Data on 14 molecules can be found in patent publication US5726147A, “Human mutant tissue factor compositions useful as tissue factor antagonists” (priority 1995, dated 1998).

The assay concerns coagulation in recalcified plasma. The assay can be described thus: One stage clotting (coagulation) assay of specific functional activity of full-length TF mutants in CHO cell lysates. In kind it is biochemical. To be noted: for loss of function (reduction in specific functional activity as % of wild-type activity): full-length Ala mutant expressed in CHO cells, cell lysate, coagulant activity normalized to antigen, relative to wild-type TF; for reduction in tissue factor procoagulant cofactor activity when compared to wt-TF: residue substituted at the named position. As for the experimental part:
The full-length TF mutants prepared above were analyzed for function by coagulation assay. […] Coagulation factor deficient plasmas were purchased from George King Bio-medical. The chromogenic substrate, Spectrozyme FXa, was from American Diagnostica Inc. (Greenwich, Conn.).
An alternative approach was to use a polyvalent antibody purified by affinity for capturing TF followed by detection with the TF8-5G9 monoclonal antibody described above.
Initiation of coagulation by wild-type and mutant TF in recalcified plasma was determined after lysis of cell pellets from 2×10^6 cells/ml for each expressed full-length mutant with 15 mM octyl-glucopyranoside in HBS for 15 minutes at 37 C. followed by a 3-fold dilution.
All data represented are based on at least three independent determinations performed in duplicate.

B1: S39-T40-S42: human tissue factor triple mutant with alanine at positions 39, 40 and 42 (protein, UniProt P13726 33-295, looked up, variant S39A T40A S42A)
Tissue factor: SGTTNTVAAYNLTWKSTNFKTILEWEPKPVNQVYTVQIAAKAGDWKSKCFYTTDTECDLTDEIVKDVKQTYLARVFSYPAGNVESTGSAGEPLYENSPEFTPYLETNLGQPTIQSFEQVGTKVNVTVEDERTLVRRNNTFLSLRDVFGKDLIYTLYYWKSSSSGKKTAKTNTNEFLIDVDKGENYCFSVQAVIPSRTVNRKSTDSPVECMGQEKGEFREIFYIIGAVVFVVIILVIILAISLHKCRKAGVGQSWKENSPLNVS
For the molecule B1, the “loss of function (reduction in specific functional activity as % of wild-type activity)” value is 43%.

B2: Asn-199: human tissue factor mutant, Asn-199 replaced by alanine (protein, UniProt P13726 33-295, looked up, variant N199A)
Tissue factor: SGTTNTVAAYNLTWKSTNFKTILEWEPKPVNQVYTVQISTKSGDWKSKCFYTTDTECDLTDEIVKDVKQTYLARVFSYPAGNVESTGSAGEPLYENSPEFTPYLETNLGQPTIQSFEQVGTKVNVTVEDERTLVRRNNTFLSLRDVFGKDLIYTLYYWKSSSSGKKTAKTNTNEFLIDVDKGENYCFSVQAVIPSRTVARKSTDSPVECMGQEKGEFREIFYIIGAVVFVVIILVIILAISLHKCRKAGVGQSWKENSPLNVS
Regarding B2, the “loss of function (reduction in specific functional activity as % of wild-type activity)” value is listed as 30-80% and the “reduction in tissue factor procoagulant cofactor activity when compared to wt-TF” value (from here on “reduction … to wt-TF”) is no less than 75%.

B3: Val-198: human tissue factor mutant, Val-198 replaced by alanine (protein, UniProt P13726 33-295, looked up, variant V198A)
Tissue factor: SGTTNTVAAYNLTWKSTNFKTILEWEPKPVNQVYTVQISTKSGDWKSKCFYTTDTECDLTDEIVKDVKQTYLARVFSYPAGNVESTGSAGEPLYENSPEFTPYLETNLGQPTIQSFEQVGTKVNVTVEDERTLVRRNNTFLSLRDVFGKDLIYTLYYWKSSSSGKKTAKTNTNEFLIDVDKGENYCFSVQAVIPSRTANRKSTDSPVECMGQEKGEFREIFYIIGAVVFVVIILVIILAISLHKCRKAGVGQSWKENSPLNVS
Turning to B3, the “loss of function (reduction in specific functional activity as % of wild-type activity)” value was 30-80%.

B4: Phe-147: human tissue factor mutant, Phe-147 exchanged for alanine (protein, UniProt P13726 33-295, looked up, variant F147A)
Tissue factor: SGTTNTVAAYNLTWKSTNFKTILEWEPKPVNQVYTVQISTKSGDWKSKCFYTTDTECDLTDEIVKDVKQTYLARVFSYPAGNVESTGSAGEPLYENSPEFTPYLETNLGQPTIQSFEQVGTKVNVTVEDERTLVRRNNTFLSLRDVAGKDLIYTLYYWKSSSSGKKTAKTNTNEFLIDVDKGENYCFSVQAVIPSRTVNRKSTDSPVECMGQEKGEFREIFYIIGAVVFVVIILVIILAISLHKCRKAGVGQSWKENSPLNVS
For B4, the “loss of function (reduction in specific functional activity as % of wild-type activity)” value is listed as 30-50%.

B5: Val-67: human tissue factor mutant, Val-67 replaced by alanine (protein, UniProt P13726 33-295, looked up, variant V67A)
Tissue factor: SGTTNTVAAYNLTWKSTNFKTILEWEPKPVNQVYTVQISTKSGDWKSKCFYTTDTECDLTDEIVKDAKQTYLARVFSYPAGNVESTGSAGEPLYENSPEFTPYLETNLGQPTIQSFEQVGTKVNVTVEDERTLVRRNNTFLSLRDVFGKDLIYTLYYWKSSSSGKKTAKTNTNEFLIDVDKGENYCFSVQAVIPSRTVNRKSTDSPVECMGQEKGEFREIFYIIGAVVFVVIILVIILAISLHKCRKAGVGQSWKENSPLNVS
As to B5, the “loss of function (reduction in specific functional activity as % of wild-type activity)” value amounted to 53%.

B6: Arg-200/Lys-201: human tissue factor mutant, Arg-200 and Lys-201 replaced by alanine (protein, UniProt P13726 33-295, looked up, variant R200A K201A)
Tissue factor: SGTTNTVAAYNLTWKSTNFKTILEWEPKPVNQVYTVQISTKSGDWKSKCFYTTDTECDLTDEIVKDVKQTYLARVFSYPAGNVESTGSAGEPLYENSPEFTPYLETNLGQPTIQSFEQVGTKVNVTVEDERTLVRRNNTFLSLRDVFGKDLIYTLYYWKSSSSGKKTAKTNTNEFLIDVDKGENYCFSVQAVIPSRTVNAASTDSPVECMGQEKGEFREIFYIIGAVVFVVIILVIILAISLHKCRKAGVGQSWKENSPLNVS
With B6, the “loss of function (reduction in specific functional activity as % of wild-type activity)” value was 30-80%.

B7: Thr-106: human tissue factor mutant, Ala replacement for Thr-106 (protein, UniProt P13726 33-295, looked up, variant T106A)
Tissue factor: SGTTNTVAAYNLTWKSTNFKTILEWEPKPVNQVYTVQISTKSGDWKSKCFYTTDTECDLTDEIVKDVKQTYLARVFSYPAGNVESTGSAGEPLYENSPEFTPYLEANLGQPTIQSFEQVGTKVNVTVEDERTLVRRNNTFLSLRDVFGKDLIYTLYYWKSSSSGKKTAKTNTNEFLIDVDKGENYCFSVQAVIPSRTVNRKSTDSPVECMGQEKGEFREIFYIIGAVVFVVIILVIILAISLHKCRKAGVGQSWKENSPLNVS
On to B7, for which the “loss of function (reduction in specific functional activity as % of wild-type activity)” value was “more than 50%”.

B8: Tyr-71: human tissue factor mutant, Tyr-71 replaced by alanine (protein, UniProt P13726 33-295, looked up, variant Y71A)
Tissue factor: SGTTNTVAAYNLTWKSTNFKTILEWEPKPVNQVYTVQISTKSGDWKSKCFYTTDTECDLTDEIVKDVKQTALARVFSYPAGNVESTGSAGEPLYENSPEFTPYLETNLGQPTIQSFEQVGTKVNVTVEDERTLVRRNNTFLSLRDVFGKDLIYTLYYWKSSSSGKKTAKTNTNEFLIDVDKGENYCFSVQAVIPSRTVNRKSTDSPVECMGQEKGEFREIFYIIGAVVFVVIILVIILAISLHKCRKAGVGQSWKENSPLNVS
With B8, the “loss of function (reduction in specific functional activity as % of wild-type activity)” value is on record as 98%.

B9: Glu-105: human tissue factor mutant, Ala replacement for Glu-105 (protein, UniProt P13726 33-295, looked up, variant E105A)
Tissue factor: SGTTNTVAAYNLTWKSTNFKTILEWEPKPVNQVYTVQISTKSGDWKSKCFYTTDTECDLTDEIVKDVKQTYLARVFSYPAGNVESTGSAGEPLYENSPEFTPYLATNLGQPTIQSFEQVGTKVNVTVEDERTLVRRNNTFLSLRDVFGKDLIYTLYYWKSSSSGKKTAKTNTNEFLIDVDKGENYCFSVQAVIPSRTVNRKSTDSPVECMGQEKGEFREIFYIIGAVVFVVIILVIILAISLHKCRKAGVGQSWKENSPLNVS
As for B9, the “loss of function (reduction in specific functional activity as % of wild-type activity)” value is on record as “more than 50%”.

B10: Val-146: human tissue factor mutant, Val-146 exchanged for alanine (protein, UniProt P13726 33-295, looked up, variant V146A)
Tissue factor: SGTTNTVAAYNLTWKSTNFKTILEWEPKPVNQVYTVQISTKSGDWKSKCFYTTDTECDLTDEIVKDVKQTYLARVFSYPAGNVESTGSAGEPLYENSPEFTPYLETNLGQPTIQSFEQVGTKVNVTVEDERTLVRRNNTFLSLRDAFGKDLIYTLYYWKSSSSGKKTAKTNTNEFLIDVDKGENYCFSVQAVIPSRTVNRKSTDSPVECMGQEKGEFREIFYIIGAVVFVVIILVIILAISLHKCRKAGVGQSWKENSPLNVS
As for B10, the “loss of function (reduction in specific functional activity as % of wild-type activity)” value was 30-50%.

B11: Asp-145: human tissue factor mutant, Asp-145 exchanged for alanine (protein, UniProt P13726 33-295, looked up, variant D145A)
Tissue factor: SGTTNTVAAYNLTWKSTNFKTILEWEPKPVNQVYTVQISTKSGDWKSKCFYTTDTECDLTDEIVKDVKQTYLARVFSYPAGNVESTGSAGEPLYENSPEFTPYLETNLGQPTIQSFEQVGTKVNVTVEDERTLVRRNNTFLSLRAVFGKDLIYTLYYWKSSSSGKKTAKTNTNEFLIDVDKGENYCFSVQAVIPSRTVNRKSTDSPVECMGQEKGEFREIFYIIGAVVFVVIILVIILAISLHKCRKAGVGQSWKENSPLNVS
B11: the “loss of function (reduction in specific functional activity as % of wild-type activity)” value is listed as 30-50%.

B12: Ser-16: full-length human tissue factor mutant, Ser-16 replaced by alanine (protein, UniProt P13726 1-295, looked up, variant S16A)
chain: METPAWPRVPRPETAVARTLLLGWVFAQVAGASGTTNTVAAYNLTWKATNFKTILEWEPKPVNQVYTVQISTKSGDWKSKCFYTTDTECDLTDEIVKDVKQTYLARVFSYPAGNVESTGSAGEPLYENSPEFTPYLETNLGQPTIQSFEQVGTKVNVTVEDERTLVRRNNTFLSLRDVFGKDLIYTLYYWKSSSSGKKTAKTNTNEFLIDVDKGENYCFSVQAVIPSRTVNRKSTDSPVECMGQEKGEFREIFYIIGAVVFVVIILVIILAISLHKCRKAGVGQSWKENSPLNVS
modifications: full-length
notes: full-length human tissue factor mutant, Ser-16 replaced by alanine
As for B12, the “loss of function (reduction in specific functional activity as % of wild-type activity)” value was “more than 70%” and the “reduction … to wt-TF” value is reported as no less than 75%.

B13: Phe-19: full-length human tissue factor mutant, Phe-19 replaced by alanine (protein, UniProt P13726 1-295, looked up, variant F19A)
chain: METPAWPRVPRPETAVARTLLLGWVFAQVAGASGTTNTVAAYNLTWKSTNAKTILEWEPKPVNQVYTVQISTKSGDWKSKCFYTTDTECDLTDEIVKDVKQTYLARVFSYPAGNVESTGSAGEPLYENSPEFTPYLETNLGQPTIQSFEQVGTKVNVTVEDERTLVRRNNTFLSLRDVFGKDLIYTLYYWKSSSSGKKTAKTNTNEFLIDVDKGENYCFSVQAVIPSRTVNRKSTDSPVECMGQEKGEFREIFYIIGAVVFVVIILVIILAISLHKCRKAGVGQSWKENSPLNVS
modifications: full-length
notes: full-length human tissue factor mutant, Phe-19 replaced by alanine
With B13, the “loss of function (reduction in specific functional activity as % of wild-type activity)” value was “more than 70%”.

B14: Thr-17: full-length human tissue factor mutant, Thr-17 replaced by alanine (protein, UniProt P13726 1-295, looked up, variant T17A)
chain: METPAWPRVPRPETAVARTLLLGWVFAQVAGASGTTNTVAAYNLTWKSANFKTILEWEPKPVNQVYTVQISTKSGDWKSKCFYTTDTECDLTDEIVKDVKQTYLARVFSYPAGNVESTGSAGEPLYENSPEFTPYLETNLGQPTIQSFEQVGTKVNVTVEDERTLVRRNNTFLSLRDVFGKDLIYTLYYWKSSSSGKKTAKTNTNEFLIDVDKGENYCFSVQAVIPSRTVNRKSTDSPVECMGQEKGEFREIFYIIGAVVFVVIILVIILAISLHKCRKAGVGQSWKENSPLNVS
modifications: full-length
notes: full-length human tissue factor mutant, Thr-17 replaced by alanine
For the molecule B14, the “loss of function (reduction in specific functional activity as % of wild-type activity)” value is reported as “more than 70%” and the “reduction … to wt-TF” value is no less than 75%.
